# Source: patent US20260117244A1, “INHIBITORY RNA FOR THE CONTROL OF PHYTOPATHOGENS” (priority 2021, published 2026)
# Legend:
# [1] = test system: grapevine powdery mildew E. necator; assay: Vineyard field trials of topical dsRNA: powdery mildew disease incidence and disease severity (Kearney and Armstrong sites); type: in vivo, Erysiphe necator; conditions: for powdery mildew disease incidence: Chenin Blanc, 3 weeks after end of treatments (June 23), untreated ~80%; for mean disease severity (percent of berries with powdery mildew per bunch): June 28, almost 4 weeks post dsRNA treatment, untreated 12%
# Protocol: The tests were done at Kearney Agriculture Research and Extension Center, Parlier, CA (Fresno County) and Armstrong Plant Pathology Field Station at University of California, Davis, CA. Susceptible grapevine cultivars were tested—Sauvignon Blanc at Kearney and Chenin Blanc at Davis. In both cases, the Stihl backpack sprayer SR450 was used and sprayer calibration, and normalization was performed to ensure equal doses of treatment applied to each replicate. During the trial period, vines were irrigated by drip irrigation and the regular maintenance of weeding, herbicide and insecticide treatments were done by the Kearney or Davis site field staff. In early season, 2.0 gallons/5 replicates and in mid to late season 2.5 to 3.0 gallons/5 replicates were sprayed. All appropriate personal protective equipment (PPE) was used and required training was completed including pesticide application training and heat exhaustion training. A randomized block design was used with 5 replicates for each treatment. Two adjacent vines were used as one experimental unit and the area between two trunks (yellow box) was sprayed and assessed (FIG. 16).
# The trial was conducted at Kearney Agricultural Research and Extension Center, Parlier, CA on blocks of the susceptible white wine variety Sauvignon Blanc. Total of 5 different gene targets from grapevine powdery mildew E. necator, EnCYP51 (SEQ ID NO:182), EnLIP1 (SEQ ID NO:183), EnICL2 (SEQ ID NO:186), EnMS (SEQ ID NO:188) and EnAPG9 (SEQ ID NO:208) were tested at this site by backpack spraying of the experimental units with dsRNA designed specifically against these target genes. The treatments were placed in a randomized block design with 5 replicates of each (dsRNA treatments 1-5), 5 replicates of Gold Standard (GS) and 5 replicates of untreated control (UT Control). Gold Standard refers to the pesticides normally used by growers to control powdery mildew: Sulfur and other chemical fungicides such as Rally, Quintec, and Luna. Between each treatment replicate, consisting of two vines, there was a spacer vine to avoid the spray drift from one treatment another.
# FIG. 17 provides an overview of the treatment schedule at Kearney. A total of 4 treatments of dsRNA were performed between May and July, replacing the 4 final treatments of the GS. Data were collected at the times marked by the gray dots in FIG. 17. The monitoring of powdery mildew index data and manual scouting of disease in the field was used to adjust timing schedule per standard protocol (www2.ipm.ucanr.edu/weather/grape-powdery-mildew-risk-assessment-index/?src=redirect2refresh).
# The total number of bunches per replicate (mean of 130) and the bunches with powdery mildew growth were counted and percent of infected bunches per replicate was calculated.
# Disease severity was calculated by counting the number of infected berries compared to total berries in a bunch. 25 bunches from both sides of the canopy were assessed per replicate.
# This trial was conducted at University of California Davis Plant Pathology Armstrong Facility on white wine variety Chenin Blanc. A total of 4 different gene targets from grapevine powdery mildew E. necator, EnLIP1 (Seq ID No:183), EnICL2 (Seq ID 186), EnMS (Seq ID No:188) and EnAPG9 (Seq ID No:208) were tested at this site by treating the vines with dsRNA designed against these target genes. A randomized block design with 5 replicates of each (treatments 1-5) and 5 replicates of untreated control (UT Control) was utilized. Spray protocols and spray volumes were the same as done by Akif Eskalen's team as shown on this link (Elfar et al. 2021, ucanr.edu/sites/eskalenlab/files/355630.pdf) and in Table 10. Eskalen's lab performed 3rd party commercial fungicide trials for the industry.
# In this field trial, a total of 3 sprays of dsRNA were performed between May and early June (FIG. 21). For the dsRNA treatments, no parallel chemical treatments were performed prior to the dsRNA treatments. […]
# [2] = test system: G. orontii MGH1; assay: Spray-induced gene silencing (SIGS), G. orontii spore production on A. thaliana (whole plant and detached leaf assays); type: in vivo, Golovinomyces orontii; conditions: topical dsRNA against G. orontii target (Gor Seq ID); detached leaf assay; n>=3
Molecule,powdery mildew disease incidence ([1]; Armstrong site),"fold by which average disease incidence of untreated control increases faster than that of the dsRNA treatment (slopes) ([1]; Armstrong site, FIG. 22 panel B)","mean disease incidence ([1]; Armstrong site, July 16, more than six weeks after dsRNA treatments)",mean disease severity (percent of berries with powdery mildew per bunch) ([1]; Armstrong site),"powdery mildew infection / disease in vineyard ([1]; topical spraying, vineyard field trials 2021, trial sites in California)","G. orontii Spore Production on Arabidopsis, Detached Leaf Assay, % reduction [2]"
"EnAPG9: dsRNA against E. necator Autophagy protein Apg9 (target SEQ ID NO:208) (nucleic acid, listed as Golovinomyces orontii, listed as DNA) ATGCCGTCTATCCCCATCACTATCATTACTGGCTTTCTAGGGTCTGGTAAAACAACTCTCCTTCTCAATATTCTTCCTCAAATACTTGCCAAGAATCCGAAATATAAATTAGCGCTTCTCAAAAATGAATTTGGAGATTTGGCTGTCGATAGTCAACTTGCAGGCTCTTCTATCACTGGTGTTCGTGAGATTCTAAATGGCTGCATTTGCTGTAACCTCGTCGGCTCTCTCTCATCGGCCCTTGAGGAGCTCACAGAGAGTATTTCTCCCGACCGAATAGTGATTGAAACGTCTGGGTCAGCATTCCCTGCAACGCTAGCTATGGAGGTTAATCGACTAGCGCGGGAGACCCAGGGTAAATATGTTCTAGATGGTGTAGTGACTGTTATTGATGTCGAAAACTGGAAGGGATATGAAGATACTAGCTTTACCGCACGATTACAAGCTCGTTACACAGATCTTGTTGTTTTTAATAAGTGGGAGGATGTTGGTGAAAGGAGGTGGGACGAATGTTTAGATCGACTGGGTGATATGGAGGTTGAAATTCCATGGGTTAAGAGTCAGAGGGGATTTGTTGATATGGATATTATCTTTGGCCTTGATGGAGGACTAGCAAAAGAATTAGAGGGAGAAGTAGAGCAAGGCCTACATCAGCAAAAAAAAACGCACAAGGACGGCGAAAGTCACCAGAACGAGGTTGAGGTACTTTCTGTCACCCTTTCTAAAAAATCTGATATCTCCTCGACCATTACACGTCCGAATTCAGAGCTTACCCCAAAAATTGATACTGATGCTCTGCTGAAACTTCTCCAAACAGCACCCAAGGACGAGGTCTACCGGATAAAGTCAATCTTTACTTCTTCTACACCTATGCCTTCATCTACTCCTATATCATCTTCAGATCTATCAGAAACGCCAGTGTCTTCAGTTGCTGGCCCAAATAAATACATTCTAAATTGGTCATTTGGTCGCTGGACCTGCACACCTATGCCCTCCACTAATTCTTCAACCACAGGAGACAGCTTTGAGCACCCATCTAGCGAGGCCGTAGGTCAAGGAGAAGTTTTCCTTCGCATGATTATAATTCTCTCAAGAGGTGCTGGTAAGAAATGGAAAAAAAGACTTGAGGATGGAGGTTTTATACGTTTCAAGGGTGTGGCCGGAACCGACGTACAGAATTTAAATGTTGTTCCCATCAGTTAA",~20%,2.74 fold,24%,1%,effective,
"EnLIP1: dsRNA against E. necator TAG lipase 1 (target SEQ ID NO:183) (nucleic acid, misc_feature 1..298: note = Inhibitory double stranded RNA; listed as RNA) ATTAATACTGGTGCTGTACAGCGCCTATTACACATTAATGAGGACTGTTTAACTGTCACTGTTCAAAAACCATCATATGCGACTCCCGACTCTAAGTTTCCTGTCGTGTTCTCTCTATTTTTTGGAGGGTTTGGTTTTGGTTCAACGGCAATATATGATGCCTCTAAACTTATTCAAGCAGGTATCAATGCAGGTAAACCTATCGTCTACGTTGCTGTAAATTATCGTTTGGGTGCATTTGGATGGCTTGGAGGAAGAGAAATTAAAGAGGCAGGTCTCGCTAATCTTGGCCATTACG",~20%,,,1%,,
"EnMS: dsRNA against E. necator Malate synthase (target SEQ ID NO:188) (nucleic acid, misc_feature 1..321: note = Inhibitory double stranded RNA; listed as RNA) TACAAGCTCAGATCAGACCGAAAACTTCCAACGCTTATTATAAGACCTCGTGGCTGGCACTTAGATGAGAAACATGTAACTATTGAAGGAGAGCCAATATCCGGCTCTCTATTCGATTTTGGACTATACTTTTTTCACAATGCCAAAGAACTGATAAAACGAGACTTAGGGCCCTACTTTTATCTTCCAAAGATGGAATCTTATCTAGAAGCCCGTCTTTGGAATGATGTCTTCAACCTAGCACAGGACTATATTGGTATTTCTCGTGGAACTATACGCGCTACAGTTCTAATTGAAACCATACTTGCTGCATTTGAAATG",~20%,,,2%,,
"181 (nucleic acid, listed as Golovinomyces orontii, listed as DNA) ATGTCTAATCAGCTAAAACATCCCTCTTTACTCATTCCAGGCCCCGTTGAGATTGACGATGCTGTCCTTCACTCTATGAGCCATCACAGATCCTCATCTTACTGCAGTGAGAGCCATGTGGACATATCGTTTATAAAAACTTTTGGAAAAACGTTGTACATGCTCAGGAAGCTATTCCAATCTAATGATCCTTACTCTCAACCATTCGTAATTTCCGGATCTGGTACCCTAGGATGGGATCTAGTAGCCGCAAATTTAGCGGAACGCGGTGATGATGTCTTAGTATTACACACGGGTTACTTTGCAGACTCTTTCTCCGATTGCTTTGAGACCTACGGGATAAACGTCACACAGCTTATAGCTCCGATTGGTTCAAGACCCCAACTAATAGAGATTGAAGAAGAATTATCAAAAAAGACCTACAAACTTCTAACAGTGACCCATGTCGATACCTCGACTGGCGTATTAAATGAACTGGAGCCAATTTCAGAAATAGTTCATCGGGTTTCTCCTGAGACCCTTGTAATTGTTGATGGAGTGTGCAGTGTCGGGTCTGAGGAGATCGCTTTCGACTCCTGGAAACTCGATGGAGTTATCACTGCAAGCCAGAAAGCAATTGGTGCACCGGCTGGTCTTTCCATCTCAATTTTCAGTGGCCGTGCGATTCAGTCATTTAATGACCGACAGACTCCTCCTGGGTCTTACTATGCATCATTCAAGAATTGGATGCCTATCATGCAGAGCTATGAAGCCCAAGAGCCTTCATATTTTGCAACTCCATCCATTCATTTGATCCATGCACTTCACACCTCTTTAACGCAAATTCTCTCACGCCCTCTTTCAGAGCGGTTCACTATTCACAGAGAAATATCTCAAAGAGTAAAAGAAGCAGTTTCTGGAATGGGATTAACTCAGTTGGCTGCCAATCCTGAAAATCAAGCAAACGGAATGACAGCAATATATTTGCCAGATAATATTAAAGCGAAAGACCTTTTAACCAAGATACTTCAAAAAGGAGTTGTTCTTGCTGGTGGATTACATAAAGAAATTGCTCATAAGTATATTCGCTTTGGTCATATGGGGGTGAGCGTGACCAAGCCTGAAAGGGGTGATATTGAACGAGCTATCAAAGCTTTGGAGACAAGTCTTTCAGAGTTAGGATATCGTAGAGAGAAACAGTCTTAG",,,,,,62%
